Publication PMC4352707

Biological target: Cry1 (UniProt P97784)
Assay: co-IP, immunoblot
Details: reference: wild-type Hausp; sites S18

binding against the reference: stronger
Substance: Hausp (Usp7), Hausp-V5 (from UniProt Q93009) Hausp S18A
